Experiment [1] concerns the target HLA-B*15:01. Description: IEDB peptide-MHC binding, purified MHC/competitive/radioactivity; filed as Kd, often an IC50 or EC50 that approximates it; ≥ and ≤ were set here for values at or beyond the usual limits of such assays.
Experiment [2] has as its target HLA-A*01:01. The experiment is described as above.
In experiment [3] the target is HLA-A*26:01. The description is as above.
Experiment [4] has as its target HLA-A*24:03. Description: IEDB peptide-MHC binding, purified MHC/direct/fluorescence; filed as Kd, often an IC50 or EC50 that approximates it; ≥ and ≤ were set here for values at or beyond the usual limits of such assays.
In experiment [5] the target is HLA-B*44:03. Nature of the experiment: IEDB peptide-MHC binding, purified MHC/competitive/radioactivity; filed as Kd, often an IC50 or EC50 that approximates it; ≥ and ≤ were set here for values at or beyond the usual limits of such assays.
For experiment [6], the target named is HLA-A*32:01. The description is as above.
The target in experiment [7] is HLA-A*30:02. The description is as above.
In experiment [8] the target is HLA-B*35:01. Described as above.
Experiment [9] concerns the target HLA-A*26:01. Nature of the experiment: IEDB peptide-MHC binding, purified MHC/direct/fluorescence; filed as Kd, often an IC50 or EC50 that approximates it; ≥ and ≤ were set here for values at or beyond the usual limits of such assays.
Experiment [10] addresses HLA-B*57:01. Described as above.
Experiment [11] has as its target HLA-A*11:01. The description is as above. The note with it: source organism: Homo sapiens.
The target in experiment [12] is HLA-A*69:01. The experiment is described as above. The note with it: source organism: Homo sapiens.
The target of experiment [13] is HLA-B*27:05. The experiment is described as above. Conditions: source organism: Homo sapiens.
Experiment [14] concerns the target HLA-A*01:01. The description is as above. The note with it: source organism: Homo sapiens.
Experiment [15] addresses HLA-A*31:01. The experiment is described as above. The note with it: source organism: Homo sapiens.
Experiment [16] concerns the target HLA-A*03:01. The description is as above. The note with it: source organism: Homo sapiens.
Experiment [17] concerns the target HLA-B*58:01. The description is as above. Conditions: source organism: Burkholderia lata.
The target in experiment [18] is HLA-B*07:02. Nature of the experiment: IEDB peptide-MHC binding, purified MHC/competitive/radioactivity; filed as Kd, often an IC50 or EC50 that approximates it; ≥ and ≤ were set here for values at or beyond the usual limits of such assays.
The target of experiment [19] is HLA-B*54:01. The experiment is described as above.
Experiment [20] addresses HLA-B*51:01. The description is as above.
Experiment [21] deals with HLA-B*53:01. Described as above.
Experiment [22] has as its target HLA-A*11:01. Described as above. The note with it: source organism: Vaccinia virus WR.
Experiment [23] has as its target HLA-A*68:01. Described as above. The note with it: source organism: Vaccinia virus WR.
The target in experiment [24] is HLA-A*31:01. Described as above. The note with it: source organism: Vaccinia virus WR.
The target of experiment [25] is HLA-A*03:01. The experiment is described as above. Conditions: source organism: Vaccinia virus WR.
For experiment [26], the target named is HLA-A*33:01. The experiment is described as above. Conditions: source organism: Vaccinia virus WR.
Setting [27] is: source organism: Dengue virus 4 Dominica/814669/1981.
The mark [28] stands for this setting: source organism: Vaccinia virus WR.
Where [29] appears, read: source organism: Dengue virus 4 Philippines/H241/1956.
Setting [30] is: source organism: Dengue virus 2 Jamaica/1409/1983.
[31] abbreviates: source organism: Dengue virus 1 Brazil/97-11/1997.
[32] abbreviates: source organism: Dengue virus 3 Martinique/1243/1999.
The mark [33] stands for this setting: source organism: Lassa virus Josiah.
Where [34] appears, read: source organism: Triticum aestivum.
[35] abbreviates: source organism: Dengue virus 2 16681-PDK53.
The mark [36] stands for this setting: source organism: Vaccinia virus Copenhagen.
Setting [37] is: source organism: SARS coronavirus Tor2.
Where [38] appears, read: source organism: Mammarenavirus guanaritoense.

Where only a bound is given, the exact number is not on record here.

One may read the Kd as the concentration at which binding is half-saturated.

Consider HTTERGGRAY, for which the Kd in experiment [1] (setting [27]) came to 220 nM; in [2] (setting [27]), 145 nM; in [3] (setting [27]), 345 nM.

With RFTPVKHEL, the equilibrium dissociation constant (Kd) in experiment [4] (source organism: Vibrio parahaemolyticus) turned out to be 5 nM.

In the case of KETACLGKAY, the Kd in [5] (source organism: Dengue virus 3 Singapore/8120/1995) is 123 nM.

Regarding ILVIFTVAI, the dissociation constant Kd in experiment [6] (setting [28]) was determined as 15.3 nM.

Regarding FSQHNYRQGY, the Kd is 135 nM in experiment [1] (setting [29]), 1250 nM in experiment [7] (setting [29]), 210 nM in [2] (setting [29]) and not below 45400 nM in experiment [8] (setting [29]).

RYRGEDGCWY: in experiment [7] (setting [30]), the Kd worked out at 198 nM.

For PVPGDWLYF, the dissociation constant Kd in experiment [9] (source organism: Mycobacterium tuberculosis str. Haarlem) is 1290 nM.

With NEMVLLTMKE, the Kd in experiment [5] (setting [31]) was 5670 nM.

ISYIMLIFF had a Kd in [10] (source organism: Yellow fever virus) of 2960 nM.

On to YISKVFEHV, for which the Kd in [1] (setting [28]) is 94.2 nM.

As for KTKLNDWDFV, in [6] (setting [32]), the Kd came out at 18500 nM.

In the case of KSDPIMLLK, the Kd amounted to 40.8 nM in experiment [11]; 1500 nM in [12]; 7470 nM in experiment [13]; 345 nM in experiment [14]; 8130 nM in experiment [15]; 381 nM in experiment [16].

Regarding KIDNYVVKF, in experiment [6] (setting [28]), the Kd came to 19.4 nM.

Take RSWPLNEGI: the Kd in experiment [6] (setting [29]) was determined as 491 nM.

In the case of ETLWSPWKL, the Kd is 1410 nM in [17] and not below 20000 nM in experiment [10] (source organism: Burkholderia lata).

In the case of WNSGHEWVTD, in experiment [6] (setting [30]), the dissociation constant (Kd) is not below 61800 nM.

As to ITYCLVTHM, the dissociation constant (Kd) in [1] (setting [28]) is 25.3 nM.

In the case of FSFMYIESI, the Kd in [1] (setting [28]) turned out to be 191 nM.

For WPYIASRTSI, the Kd in experiment [18] (setting [33]) is 55.6 nM; in experiment [19] (setting [33]) it was 714 nM; in experiment [20] (setting [33]) it was 45.8 nM; in [21] (setting [33]), not below 23200 nM; in experiment [8] (setting [33]), not below 72000 nM.

Regarding ILLKMVTHF, the dissociation constant Kd in experiment [1] (setting [29]) turned out to be 1.72 nM.

On to SPMVIATTDM, for which the dissociation constant Kd in experiment [18] (setting [28]) was 21.6 nM; in [19] (setting [28]) it was 1040 nM; in experiment [20] (setting [28]) it was not below 52700 nM; in experiment [21] (setting [28]) it was 747 nM; in [8] (setting [28]), 66.6 nM.

Regarding LLFNSSFCI, in experiment [1] (setting [28]), the dissociation constant (Kd) came out at 104 nM.

Consider QPQQLPQFEEI, for which the equilibrium dissociation constant (Kd) was not below 64000 nM in experiment [18] (setting [34]); not below 63700 nM in experiment [19] (setting [34]); 14100 nM in [20] (setting [34]); not below 63700 nM in experiment [21] (setting [34]); not below 63700 nM in experiment [8] (setting [34]).

Turning to WMINIMIHM, the Kd in [1] (setting [28]) is 667 nM.

For LSPVRVPNY, the dissociation constant (Kd) in experiment [7] (setting [30]) was found to be 50.2 nM; in experiment [2] (setting [30]), 5420 nM.

For the sequence LGKSEFQIY, in [7] (setting [30]), the dissociation constant (Kd) is not below 76900 nM.

In the case of MTDEQIYAF, the dissociation constant (Kd) in [6] (setting [28]) was found to be 17.7 nM.

Regarding VVQPENLEY, the dissociation constant (Kd) in experiment [7] (setting [35]) stood at 2040 nM; in [2] (setting [35]), 381 nM.

With RPSIGNVFKA, the dissociation constant Kd was 3830 nM in experiment [18] (setting [28]); 644 nM in experiment [19] (setting [28]); not below 69600 nM in experiment [20] (setting [28]); not below 36400 nM in [21] (setting [28]); not below 69900 nM in [8] (setting [28]).

As for EEISTSLSF, in experiment [1] (setting [28]), the dissociation constant Kd was 2.05 nM.

On to ELCGAFLFY, for which the Kd in experiment [1] (setting [28]) is 7.47 nM; in experiment [22] it was 196 nM; in [23], 277 nM; in [24] it was 1030 nM; in [25] it was 156 nM; in experiment [26], 13600 nM.

Consider LGSSFCLHA, for which the dissociation constant Kd in [1] (setting [28]) was not below 25500 nM.

Take LENENILHG: the Kd in [1] (setting [36]) was 309 nM.

For the sequence ETIDTIIDQ, in experiment [9] (source organism: Mammarenavirus lassaense), the equilibrium dissociation constant (Kd) turned out to be 954 nM.

With ELNNTQCHI, the Kd in experiment [1] (setting [28]) came to 1240 nM.

For NEMVLLQMED, the dissociation constant Kd in [5] (setting [30]) was found to be 6080 nM.

RSISRTENF: the Kd in experiment [1] (setting [28]) turned out to be 4.77 nM.

As to LPFYSNVTGF, the dissociation constant Kd in [18] (setting [37]) is 563 nM; in experiment [19] (setting [37]) it was 132 nM; in experiment [20] (setting [37]), 861 nM; in experiment [21] (setting [37]), 79.8 nM; in experiment [8] (setting [37]), 11.5 nM.

AMEELPDTI: in [6] (setting [31]), the Kd is not below 21400 nM.

As for CPKIFNNNY, the dissociation constant Kd in experiment [18] (setting [28]) was not below 72900 nM; in experiment [19] (setting [28]) it was 13000 nM; in experiment [20] (setting [28]), not below 77500 nM; in [21] (setting [28]), 331 nM; in experiment [8] (setting [28]), 160 nM.

Consider LTIESVNAL, for which, in experiment [6] (setting [36]), the Kd was 170 nM.

In the case of TPNNFSSIV, the equilibrium dissociation constant (Kd) came out at 1370 nM in [18] (setting [38]); 408 nM in experiment [19] (setting [38]); 1250 nM in [20] (setting [38]); 7580 nM in experiment [21] (setting [38]); 1810 nM in [8] (setting [38]).

For the sequence VPVLEKKVCA, the Kd in experiment [18] (setting [28]) is 3000 nM; in experiment [19] (setting [28]) it was 256 nM; in [20] (setting [28]), not below 29100 nM; in [21] (setting [28]) it was not below 26400 nM; in [8] (setting [28]), 7680 nM.

For STFSISSIF, the Kd in experiment [6] (setting [36]) stood at 1.05 nM.

As for GGPISQHNY, the dissociation constant (Kd) in experiment [7] (setting [31]) worked out at 473 nM.

Take HTTERGGKAY: the results for the Kd in experiment [1] (setting [29]), in experiment [2] (setting [29]) and in experiment [3] (setting [29]) were 50.5 nM, 4310 nM and 1320 nM, respectively.

In [4] (source organism: Mycobacterium tuberculosis), GWALGYLYF registered a Kd of 24.5 nM.

On to LPSLEYGANY, for which the Kd was not below 45100 nM in experiment [18] (setting [28]); 960 nM in experiment [19] (setting [28]); not below 69600 nM in [20] (setting [28]); 13.3 nM in experiment [21] (setting [28]); 15.1 nM in experiment [8] (setting [28]).

For IISSTPFAEY, the Kd in [7] (setting [29]) was determined as 36.9 nM; in experiment [2] (setting [29]), 3440 nM.

In the case of EETNMITLLV, the Kd in experiment [5] (setting [29]) came to 614 nM.

Regarding AVHQVFGSVY, the dissociation constant Kd in experiment [1] (setting [29]) turned out to be 1.1 nM.

SPYNSQNAVA: the Kd in experiment [18] (setting [37]) is 59.4 nM; in experiment [19] (setting [37]) it was 1.4 nM; in [20] (setting [37]), 3470 nM; in [21] (setting [37]), 15900 nM; in [8] (setting [37]), 8240 nM.

In the case of ITNELNYVL, the Kd in experiment [6] (setting [29]) is 74.6 nM.

Regarding MEAEGVITQ, the dissociation constant (Kd) in experiment [5] (setting [29]) is 8980 nM.

Regarding AEWLWRTLGR, in experiment [5] (setting [32]), the Kd came to 314 nM.

As to LAVSGVYPM, the Kd in [1] (setting [31]) was determined as 66.4 nM; in experiment [21] (setting [31]) it was 851 nM; in experiment [8] (setting [31]) it was 16.7 nM.

On to TLKGMSYVM, for which the Kd in [1] (source organism: Dengue virus 1 Singapore/S275/1990) is 17.6 nM.

MLHCYESYM: the Kd in experiment [1] (setting [28]) came out at 97 nM.

(Values after the Immune Epitope Database (IEDB).)
